The sequences below were run against EPHB2 (UniProt P29323) (assay: phosphorylation enrichment, bacterial display (enrichment ratio); higher = better substrate or ligand; peptides without Tyr show the background).
Sequence of EPHB2 (P29323 whole entry, looked up): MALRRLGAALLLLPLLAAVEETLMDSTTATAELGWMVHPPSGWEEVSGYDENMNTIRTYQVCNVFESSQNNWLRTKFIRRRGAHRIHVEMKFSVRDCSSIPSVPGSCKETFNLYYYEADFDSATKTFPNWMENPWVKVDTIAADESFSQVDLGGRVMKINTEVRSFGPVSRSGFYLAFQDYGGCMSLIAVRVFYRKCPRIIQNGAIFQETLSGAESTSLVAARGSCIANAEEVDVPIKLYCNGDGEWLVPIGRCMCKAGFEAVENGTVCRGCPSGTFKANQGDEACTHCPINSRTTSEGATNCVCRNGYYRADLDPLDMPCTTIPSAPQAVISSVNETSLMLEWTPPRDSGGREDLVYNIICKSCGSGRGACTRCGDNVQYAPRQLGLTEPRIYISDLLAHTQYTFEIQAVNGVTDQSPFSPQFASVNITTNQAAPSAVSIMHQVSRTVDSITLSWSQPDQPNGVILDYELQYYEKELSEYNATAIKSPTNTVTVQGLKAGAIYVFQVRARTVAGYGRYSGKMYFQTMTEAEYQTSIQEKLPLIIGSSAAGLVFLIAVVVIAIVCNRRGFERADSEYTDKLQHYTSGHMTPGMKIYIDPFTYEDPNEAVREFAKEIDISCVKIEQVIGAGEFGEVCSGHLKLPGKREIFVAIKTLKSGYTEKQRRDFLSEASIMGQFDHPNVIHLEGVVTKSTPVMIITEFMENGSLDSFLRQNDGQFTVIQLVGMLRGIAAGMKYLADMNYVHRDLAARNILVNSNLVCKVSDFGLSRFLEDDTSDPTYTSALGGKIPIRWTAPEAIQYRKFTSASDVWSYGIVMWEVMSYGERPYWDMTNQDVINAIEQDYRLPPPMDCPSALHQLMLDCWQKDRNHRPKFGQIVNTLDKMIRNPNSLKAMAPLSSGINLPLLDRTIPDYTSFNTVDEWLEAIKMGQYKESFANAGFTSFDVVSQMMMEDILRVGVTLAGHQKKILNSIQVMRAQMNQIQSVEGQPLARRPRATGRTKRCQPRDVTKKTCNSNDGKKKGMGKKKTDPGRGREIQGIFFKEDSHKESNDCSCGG
TFEYRYLEDRD [CNOT3_Y746] was tested, and the phosphorylation enrichment was 0.504. For GIYSGYDDAWD [POLR1C_Y36_N32I], the phosphorylation enrichment was 2.5. QSSALYEDRYL [ASS1_Y83] showed a phosphorylation enrichment of 2.45. In the case of RAVLLYEYVGK [NATD1_Y45], the phosphorylation enrichment is reported as 35.4. Sequence TVQVAYYTMMM [SPATA17_Y83] has a phosphorylation enrichment of 1.76. Work on KPGLIYNKVNP [SPRED3_Y72_V71I] yielded a phosphorylation enrichment of 0.408. For RPGSGYTNIMR [PKLR_Y564], the phosphorylation enrichment was 0.588. Work on PNAYIYVVQLP [L1CAM_Y420_A415P] yielded a phosphorylation enrichment of 1.35. Sequence GGYNNYGYGSD [HNRNPH3_Y159_N163S] has a phosphorylation enrichment of 2.4. For IKNSGYISQFL [EIF2AK3_Y585_R588Q_YF], the phosphorylation enrichment was 0.458. Sequence STSFDYCRVPM [BST2_Y8_YF] has a phosphorylation enrichment of 5.96. With DEENFYQGSME [ASCC1_Y36_D34N] the phosphorylation enrichment was 0.604. With VDSLRYIFPKL [EIF2B3_Y92_A87V_YF] the phosphorylation enrichment was 0.38. Work on DFCDLYGGEKF [PTPN11_Y66_Y63C_YF] yielded a phosphorylation enrichment of 0.564. For AGQERYRAITS [RAB11B_Y73], the phosphorylation enrichment was 0.53. RMGNLYDIDEN [GRIN2A_Y1246_D1251N] gave a phosphorylation enrichment of 1.44. Work on VVVTKYCKEEL [ATP7B_Y1078_A1074V] yielded a phosphorylation enrichment of 0.658. In the case of AGTIPYHAHLD [ASS1_Y291_L290P], the phosphorylation enrichment is reported as 0.369. ANAYIYDVQLP [L1CAM_Y420_V421D] showed a phosphorylation enrichment of 2.78. With FGMQLYQNFMH [GRB14_Y347_YF] the phosphorylation enrichment was 2.41. Sequence EKPAKYDDIKK [GAPDH_Y255] has a phosphorylation enrichment of 0.452. With KRYRIYHLAIS [BRCA2_Y3009_T3013I] the phosphorylation enrichment was 0.358. With LLINKYGLSDH [SCP2_Y151_A155D] the phosphorylation enrichment was 0.62. Sequence FHLLPYTVRAM [PARS2_Y93_YF] has a phosphorylation enrichment of 0.633. RREWFYEVIIA [BACE1_Y260_V265A_YF] showed a phosphorylation enrichment of 0.391. LNPFIYSLRNC [OR1A2_Y288_W293C] gave a phosphorylation enrichment of 1.24. RASDYYSQQMA [GBP6_Y334_A331S] gave a phosphorylation enrichment of 0.585. RFLRGYRQHAY [HLA-A_Y137_D140H] showed a phosphorylation enrichment of 0.879. Sequence ISSLLYELLEE [TRPC6_Y896_R895L] has a phosphorylation enrichment of 4.5. TEQMAYCPIQC [SHC4_Y403] gave a phosphorylation enrichment of 0.676. PQAVRYIFTID [DCX_Y103_G100A_YF] was tested, and the phosphorylation enrichment was 0.59. LNPDGYKKAYE [CPXM2_Y427_E428K] showed a phosphorylation enrichment of 0.749. For RTTIHYNFMCN [TP53_Y234_C229R_YF], the phosphorylation enrichment was 0.808.

What follows are sequences tested against MERTK (UniProt Q12866) in the same assay as above.
Sequence of MERTK (Q12866 whole entry, looked up): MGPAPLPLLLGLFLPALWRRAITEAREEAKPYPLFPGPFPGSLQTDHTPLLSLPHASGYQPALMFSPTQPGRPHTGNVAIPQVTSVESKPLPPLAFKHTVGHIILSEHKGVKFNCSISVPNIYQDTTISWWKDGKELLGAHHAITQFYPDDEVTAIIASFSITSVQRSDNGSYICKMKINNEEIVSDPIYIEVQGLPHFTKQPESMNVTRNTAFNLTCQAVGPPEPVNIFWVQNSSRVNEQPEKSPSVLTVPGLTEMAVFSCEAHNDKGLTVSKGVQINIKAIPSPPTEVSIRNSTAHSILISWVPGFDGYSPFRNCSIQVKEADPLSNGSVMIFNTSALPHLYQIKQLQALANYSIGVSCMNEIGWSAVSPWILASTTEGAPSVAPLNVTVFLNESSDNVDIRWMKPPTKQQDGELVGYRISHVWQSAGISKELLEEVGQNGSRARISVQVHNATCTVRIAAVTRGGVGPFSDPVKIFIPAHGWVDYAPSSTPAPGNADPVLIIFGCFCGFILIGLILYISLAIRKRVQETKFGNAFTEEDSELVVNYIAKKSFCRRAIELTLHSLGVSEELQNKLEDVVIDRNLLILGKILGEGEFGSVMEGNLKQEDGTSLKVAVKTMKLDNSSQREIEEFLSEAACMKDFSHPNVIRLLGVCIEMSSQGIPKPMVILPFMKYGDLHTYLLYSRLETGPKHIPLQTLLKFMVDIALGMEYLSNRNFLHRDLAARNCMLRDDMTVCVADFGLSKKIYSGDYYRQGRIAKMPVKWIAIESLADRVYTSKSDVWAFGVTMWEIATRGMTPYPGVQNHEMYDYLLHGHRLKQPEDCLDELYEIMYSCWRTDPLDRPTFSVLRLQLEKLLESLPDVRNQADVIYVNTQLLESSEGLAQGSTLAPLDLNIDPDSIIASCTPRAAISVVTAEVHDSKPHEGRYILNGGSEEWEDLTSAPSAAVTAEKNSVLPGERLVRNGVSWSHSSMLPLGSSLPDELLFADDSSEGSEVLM
TFEYRYLEDRD [CNOT3_Y746] gave a phosphorylation enrichment of 0.493. For GIYSGYDDAWD [POLR1C_Y36_N32I], the phosphorylation enrichment was 2.25. With QSSALYEDRYL [ASS1_Y83] the phosphorylation enrichment was 1.1. Work on RAVLLYEYVGK [NATD1_Y45] yielded a phosphorylation enrichment of 11.4. TVQVAYYTMMM [SPATA17_Y83] was tested, and the phosphorylation enrichment was 9.05. KPGLIYNKVNP [SPRED3_Y72_V71I] gave a phosphorylation enrichment of 1.07. With RPGSGYTNIMR [PKLR_Y564] the phosphorylation enrichment was 0.579. PNAYIYVVQLP [L1CAM_Y420_A415P] was tested, and the phosphorylation enrichment was 2.25. Work on GGYNNYGYGSD [HNRNPH3_Y159_N163S] yielded a phosphorylation enrichment of 0.479. Sequence IKNSGYISQFL [EIF2AK3_Y585_R588Q_YF] has a phosphorylation enrichment of 0.327. In the case of STSFDYCRVPM [BST2_Y8_YF], the phosphorylation enrichment is reported as 0.903. With DEENFYQGSME [ASCC1_Y36_D34N] the phosphorylation enrichment was 0.517. For VDSLRYIFPKL [EIF2B3_Y92_A87V_YF], the phosphorylation enrichment was 0.531. Sequence DFCDLYGGEKF [PTPN11_Y66_Y63C_YF] has a phosphorylation enrichment of 0.54. AGQERYRAITS [RAB11B_Y73] was tested, and the phosphorylation enrichment was 0.487. RMGNLYDIDEN [GRIN2A_Y1246_D1251N] gave a phosphorylation enrichment of 1.03. VVVTKYCKEEL [ATP7B_Y1078_A1074V] gave a phosphorylation enrichment of 0.447. For AGTIPYHAHLD [ASS1_Y291_L290P], the phosphorylation enrichment was 0.456. Work on ANAYIYDVQLP [L1CAM_Y420_V421D] yielded a phosphorylation enrichment of 9.63. Sequence FGMQLYQNFMH [GRB14_Y347_YF] has a phosphorylation enrichment of 2.89. EKPAKYDDIKK [GAPDH_Y255] showed a phosphorylation enrichment of 0.334. For KRYRIYHLAIS [BRCA2_Y3009_T3013I], the phosphorylation enrichment was 0.62. In the case of LLINKYGLSDH [SCP2_Y151_A155D], the phosphorylation enrichment is reported as 0.645. Work on FHLLPYTVRAM [PARS2_Y93_YF] yielded a phosphorylation enrichment of 0.438. With RREWFYEVIIA [BACE1_Y260_V265A_YF] the phosphorylation enrichment was 1.24. LNPFIYSLRNC [OR1A2_Y288_W293C] showed a phosphorylation enrichment of 1.04. RASDYYSQQMA [GBP6_Y334_A331S] showed a phosphorylation enrichment of 0.581. With RFLRGYRQHAY [HLA-A_Y137_D140H] the phosphorylation enrichment was 1.33. ISSLLYELLEE [TRPC6_Y896_R895L] showed a phosphorylation enrichment of 6.1. TEQMAYCPIQC [SHC4_Y403] was tested, and the phosphorylation enrichment was 0.678. Work on PQAVRYIFTID [DCX_Y103_G100A_YF] yielded a phosphorylation enrichment of 0.595. In the case of LNPDGYKKAYE [CPXM2_Y427_E428K], the phosphorylation enrichment is reported as 0.734. In the case of RTTIHYNFMCN [TP53_Y234_C229R_YF], the phosphorylation enrichment is reported as 0.609.

What follows are sequences tested against Jak2 (UniProt O60674) in the same assay as above.
Sequence of Jak2 (O60674 whole entry, looked up): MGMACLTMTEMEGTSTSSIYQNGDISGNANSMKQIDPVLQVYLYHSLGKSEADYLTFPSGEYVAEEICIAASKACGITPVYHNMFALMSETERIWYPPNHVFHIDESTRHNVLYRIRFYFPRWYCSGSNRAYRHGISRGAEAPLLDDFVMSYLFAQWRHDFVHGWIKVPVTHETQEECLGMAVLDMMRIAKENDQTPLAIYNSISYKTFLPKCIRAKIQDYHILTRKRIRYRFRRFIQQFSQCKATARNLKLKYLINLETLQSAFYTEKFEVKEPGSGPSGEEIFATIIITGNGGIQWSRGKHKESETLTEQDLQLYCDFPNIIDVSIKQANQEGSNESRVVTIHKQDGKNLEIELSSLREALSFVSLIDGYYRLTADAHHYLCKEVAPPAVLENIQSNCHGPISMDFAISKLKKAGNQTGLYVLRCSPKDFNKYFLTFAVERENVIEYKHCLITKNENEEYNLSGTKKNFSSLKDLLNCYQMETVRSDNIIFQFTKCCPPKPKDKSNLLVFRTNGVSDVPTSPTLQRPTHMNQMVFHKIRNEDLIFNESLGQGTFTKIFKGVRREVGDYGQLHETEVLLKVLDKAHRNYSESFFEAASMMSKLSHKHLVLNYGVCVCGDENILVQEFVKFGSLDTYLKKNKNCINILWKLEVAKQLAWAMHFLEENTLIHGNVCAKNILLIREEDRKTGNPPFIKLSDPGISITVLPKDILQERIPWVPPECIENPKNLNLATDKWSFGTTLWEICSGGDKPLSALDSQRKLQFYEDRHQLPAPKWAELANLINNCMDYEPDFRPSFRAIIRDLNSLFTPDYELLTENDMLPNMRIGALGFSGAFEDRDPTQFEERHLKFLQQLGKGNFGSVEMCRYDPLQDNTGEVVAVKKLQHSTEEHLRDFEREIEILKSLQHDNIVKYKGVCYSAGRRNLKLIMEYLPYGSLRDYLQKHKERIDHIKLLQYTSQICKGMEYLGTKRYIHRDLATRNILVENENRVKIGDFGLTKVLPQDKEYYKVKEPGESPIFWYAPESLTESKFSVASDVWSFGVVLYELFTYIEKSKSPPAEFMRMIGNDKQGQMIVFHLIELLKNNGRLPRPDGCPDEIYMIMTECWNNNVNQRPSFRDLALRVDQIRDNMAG
TFEYRYLEDRD [CNOT3_Y746] was tested, and the phosphorylation enrichment was 1.02. GIYSGYDDAWD [POLR1C_Y36_N32I] showed a phosphorylation enrichment of 1.05. For QSSALYEDRYL [ASS1_Y83], the phosphorylation enrichment was 1.01. Work on RAVLLYEYVGK [NATD1_Y45] yielded a phosphorylation enrichment of 0.857. TVQVAYYTMMM [SPATA17_Y83] gave a phosphorylation enrichment of 4.2. With KPGLIYNKVNP [SPRED3_Y72_V71I] the phosphorylation enrichment was 0.722. RPGSGYTNIMR [PKLR_Y564] gave a phosphorylation enrichment of 0.532. With PNAYIYVVQLP [L1CAM_Y420_A415P] the phosphorylation enrichment was 1.75. Sequence GGYNNYGYGSD [HNRNPH3_Y159_N163S] has a phosphorylation enrichment of 0.611. For IKNSGYISQFL [EIF2AK3_Y585_R588Q_YF], the phosphorylation enrichment was 0.404. Sequence STSFDYCRVPM [BST2_Y8_YF] has a phosphorylation enrichment of 2.03. In the case of DEENFYQGSME [ASCC1_Y36_D34N], the phosphorylation enrichment is reported as 1.05. Sequence VDSLRYIFPKL [EIF2B3_Y92_A87V_YF] has a phosphorylation enrichment of 0.822. With DFCDLYGGEKF [PTPN11_Y66_Y63C_YF] the phosphorylation enrichment was 0.908. AGQERYRAITS [RAB11B_Y73] was tested, and the phosphorylation enrichment was 0.704. RMGNLYDIDEN [GRIN2A_Y1246_D1251N] gave a phosphorylation enrichment of 3.11. VVVTKYCKEEL [ATP7B_Y1078_A1074V] was tested, and the phosphorylation enrichment was 0.968. AGTIPYHAHLD [ASS1_Y291_L290P] gave a phosphorylation enrichment of 0.447. Sequence ANAYIYDVQLP [L1CAM_Y420_V421D] has a phosphorylation enrichment of 0.905. In the case of FGMQLYQNFMH [GRB14_Y347_YF], the phosphorylation enrichment is reported as 0.971. EKPAKYDDIKK [GAPDH_Y255] showed a phosphorylation enrichment of 0.745. With KRYRIYHLAIS [BRCA2_Y3009_T3013I] the phosphorylation enrichment was 0.604. Work on LLINKYGLSDH [SCP2_Y151_A155D] yielded a phosphorylation enrichment of 1.19. FHLLPYTVRAM [PARS2_Y93_YF] showed a phosphorylation enrichment of 0.691. RREWFYEVIIA [BACE1_Y260_V265A_YF] was tested, and the phosphorylation enrichment was 0.807. Sequence LNPFIYSLRNC [OR1A2_Y288_W293C] has a phosphorylation enrichment of 1.11. Sequence RASDYYSQQMA [GBP6_Y334_A331S] has a phosphorylation enrichment of 0.571. RFLRGYRQHAY [HLA-A_Y137_D140H] showed a phosphorylation enrichment of 0.979. Work on ISSLLYELLEE [TRPC6_Y896_R895L] yielded a phosphorylation enrichment of 1.21. TEQMAYCPIQC [SHC4_Y403] was tested, and the phosphorylation enrichment was 1.26. In the case of PQAVRYIFTID [DCX_Y103_G100A_YF], the phosphorylation enrichment is reported as 0.806. Sequence LNPDGYKKAYE [CPXM2_Y427_E428K] has a phosphorylation enrichment of 1. For RTTIHYNFMCN [TP53_Y234_C229R_YF], the phosphorylation enrichment was 1.29.

These sequences were tested against Fyn (UniProt P06241) in the same assay as above.
Sequence of Fyn (P06241 whole entry, looked up): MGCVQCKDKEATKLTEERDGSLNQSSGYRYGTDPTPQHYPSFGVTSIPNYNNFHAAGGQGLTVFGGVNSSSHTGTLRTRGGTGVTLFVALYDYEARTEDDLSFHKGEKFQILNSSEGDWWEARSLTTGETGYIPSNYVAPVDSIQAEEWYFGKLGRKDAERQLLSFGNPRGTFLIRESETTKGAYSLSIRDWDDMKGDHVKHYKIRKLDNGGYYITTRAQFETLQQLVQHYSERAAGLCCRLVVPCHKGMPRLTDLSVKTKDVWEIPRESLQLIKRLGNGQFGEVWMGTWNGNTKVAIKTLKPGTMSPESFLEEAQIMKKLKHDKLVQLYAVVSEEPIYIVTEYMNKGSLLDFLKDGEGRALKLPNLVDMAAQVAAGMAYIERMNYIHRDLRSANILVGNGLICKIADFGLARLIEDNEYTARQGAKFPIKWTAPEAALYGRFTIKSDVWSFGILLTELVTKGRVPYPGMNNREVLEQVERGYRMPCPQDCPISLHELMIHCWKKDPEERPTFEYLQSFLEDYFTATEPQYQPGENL
For TFEYRYLEDRD [CNOT3_Y746], the phosphorylation enrichment was 0.545. Sequence GIYSGYDDAWD [POLR1C_Y36_N32I] has a phosphorylation enrichment of 7.64. With QSSALYEDRYL [ASS1_Y83] the phosphorylation enrichment was 0.997. RAVLLYEYVGK [NATD1_Y45] was tested, and the phosphorylation enrichment was 6.98. TVQVAYYTMMM [SPATA17_Y83] gave a phosphorylation enrichment of 2. KPGLIYNKVNP [SPRED3_Y72_V71I] was tested, and the phosphorylation enrichment was 0.738. For RPGSGYTNIMR [PKLR_Y564], the phosphorylation enrichment was 0.919. With PNAYIYVVQLP [L1CAM_Y420_A415P] the phosphorylation enrichment was 0.941. Sequence GGYNNYGYGSD [HNRNPH3_Y159_N163S] has a phosphorylation enrichment of 0.379. Work on IKNSGYISQFL [EIF2AK3_Y585_R588Q_YF] yielded a phosphorylation enrichment of 0.531. Sequence STSFDYCRVPM [BST2_Y8_YF] has a phosphorylation enrichment of 0.828. In the case of DEENFYQGSME [ASCC1_Y36_D34N], the phosphorylation enrichment is reported as 0.498. In the case of VDSLRYIFPKL [EIF2B3_Y92_A87V_YF], the phosphorylation enrichment is reported as 0.372. In the case of DFCDLYGGEKF [PTPN11_Y66_Y63C_YF], the phosphorylation enrichment is reported as 1.35. AGQERYRAITS [RAB11B_Y73] gave a phosphorylation enrichment of 0.554. In the case of RMGNLYDIDEN [GRIN2A_Y1246_D1251N], the phosphorylation enrichment is reported as 4.25. Sequence VVVTKYCKEEL [ATP7B_Y1078_A1074V] has a phosphorylation enrichment of 0.568. With AGTIPYHAHLD [ASS1_Y291_L290P] the phosphorylation enrichment was 0.415. ANAYIYDVQLP [L1CAM_Y420_V421D] showed a phosphorylation enrichment of 10.3. FGMQLYQNFMH [GRB14_Y347_YF] showed a phosphorylation enrichment of 2.84. For EKPAKYDDIKK [GAPDH_Y255], the phosphorylation enrichment was 0.316. Work on KRYRIYHLAIS [BRCA2_Y3009_T3013I] yielded a phosphorylation enrichment of 0.343. With LLINKYGLSDH [SCP2_Y151_A155D] the phosphorylation enrichment was 0.678. FHLLPYTVRAM [PARS2_Y93_YF] gave a phosphorylation enrichment of 0.446. For RREWFYEVIIA [BACE1_Y260_V265A_YF], the phosphorylation enrichment was 0.593. LNPFIYSLRNC [OR1A2_Y288_W293C] gave a phosphorylation enrichment of 4.37. For RASDYYSQQMA [GBP6_Y334_A331S], the phosphorylation enrichment was 0.422. RFLRGYRQHAY [HLA-A_Y137_D140H] was tested, and the phosphorylation enrichment was 0.654. ISSLLYELLEE [TRPC6_Y896_R895L] gave a phosphorylation enrichment of 2.14. TEQMAYCPIQC [SHC4_Y403] was tested, and the phosphorylation enrichment was 0.421. Sequence PQAVRYIFTID [DCX_Y103_G100A_YF] has a phosphorylation enrichment of 0.639. In the case of LNPDGYKKAYE [CPXM2_Y427_E428K], the phosphorylation enrichment is reported as 0.676. For RTTIHYNFMCN [TP53_Y234_C229R_YF], the phosphorylation enrichment was 0.527.

— the supplement of paper PMC10065799, “High-throughput profiling of sequence recognition by tyrosine kinases and SH2 domains using bacterial peptide display” (eLife, 2023)
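Further: 11-residue human phosphosite peptides and single-mutation variants displayed on the E. coli surface, counted by deep sequencing, each peptide's frequency after selection divided by its frequency in the unselected input library; frequency after pTyr selection over input frequency; kinase dosed for 20-30% of maximal phosphorylation in three min.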
